Test results taken from paper PMC4552821.
Where two headings read alike, the source gives them in different places.

Assays:
[1] = target: Bone morphogenetic protein 2 (rhBMP-2) (UniProt P12643); experiment: SPR (Reichert SR 7000 refractometer); conditions: pH 7.4; 20°C; 154 mM NaCl plus 6.7 mM phosphates (PBS); HyClone PBS (154 mM NaCl, 1.06 mM KH2PO4, 5.6 mM Na2HPO4) at pH 7.4. The pH 4.5 solvent is the same PBS acidified with d
[2] = target: Kerateine (KTN) extract, in solution (analyte); experiment: SPR (Reichert SR 7000 refractometer); conditions: 20°C, no added salt, unbuffered
[3] = target: kerateine (reduced hair keratin extract) (Homo sapiens) (UniProt Q15323); experiment: SPR
[4] = target: kerateine (reduced hair keratin extract) (Homo sapiens) (UniProt Q15323); experiment: SPR; remark: listed apart in the source
[5] = pH 7, deionized water, water (pH 7)
[6] = pH 12, 10 mM NaOH, 10 mM NaOH (pH 12)

Bone morphogenetic protein 2 (rhBMP-2), sequence (P12643 whole entry): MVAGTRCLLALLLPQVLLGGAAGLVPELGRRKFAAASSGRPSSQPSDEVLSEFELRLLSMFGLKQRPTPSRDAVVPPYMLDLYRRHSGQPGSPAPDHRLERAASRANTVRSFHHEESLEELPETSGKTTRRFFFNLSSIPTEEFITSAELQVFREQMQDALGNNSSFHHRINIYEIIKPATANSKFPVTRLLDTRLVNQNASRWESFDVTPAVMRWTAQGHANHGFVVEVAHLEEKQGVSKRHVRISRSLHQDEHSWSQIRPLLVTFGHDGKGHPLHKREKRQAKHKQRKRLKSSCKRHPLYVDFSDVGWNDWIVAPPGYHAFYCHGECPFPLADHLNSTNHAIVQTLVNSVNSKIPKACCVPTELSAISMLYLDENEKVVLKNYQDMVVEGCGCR

Kerateine (KTN) extract, chemisorbed monolayer on gold
KD [1]: 32 µM
t1/2 (half-life of the complex) [1]: 224 s
ΔG (dissociation energy) [1]: 6.0 kcal/mol
KD [2, 5]: 180 µM
t1/2 (half-life of the complex) [2, 5]: 77 s
ΔG (dissociation energy) [2, 5]: 5.0 kcal/mol
KD [2, 6]: 100 µM
t1/2 (half-life of the complex) [2, 6]: 106 s
ΔG (dissociation energy) [2, 6]: 5.4 kcal/mol

kerateine (reduced hair keratin extract), Q15323
Kd [3]: 180 µM
Kd [4]: 100 µM
